Four substances from patent US20070036814A1 can be followed below.

For one assay, the target named is fibrinogen. As to the kind of experiment: cell-based or functional assay.
Assay [1] deals with canine fibrinogen (canine) (UniProt P68213). As to the kind of experiment: cell-based or functional assay.

For the substance “CIfA protein on the surface of S. aureus strain Newman cells (from UniProt Q53653 40-899) (receptor)”, in the assay with fibrinogen, the titre in microtitre clumping assay (Newman wild-type) is 2048 titre. In assay [1], the decrease in attachment of the fibrinogen receptor mutant to ex vivo polyvinyl chloride and polyethylene tubings exposed to canine blood was more than 80%; the loss of adherence of the fibrinogen receptor mutant (cIfA::Tn917) to canine fibrinogen coated PMMA coverslips is more than 95%.
Turning to “glutathione S-transferase fusion protein of CIfA Region A (residues 23-550) expressed from pCF24 (from UniProt Q53653 23-550)”, the Inhibiting concentration, inhibition of clumping by lysate with fibrinogen was determined as 9.37 micro g.
On the same count and under the same terms, the same measure for “glutathione S-transferase fusion protein of CIfA regions R, W and M (residues 546-933) expressed from pCF25 (from UniProt Q53653 546-933)”: more than 300 micro g; for “glutathione S-transferase fusion protein of CIfA residues 221-550 expressed from pCF31 (from UniProt Q53653 221-550)”: 9.37 micro g.
